{"source": "patent US20250134975A1", "about": "“CANCER VACCINE COMPRISING EPITOPE OF C-MET AND USE THEREOF” (KOREA UNIVERSITY RESEARCH AND BUSINESS FOUNDATION, priority 2022, published 2025)", "key": {"[1]": {"test_system": "bone marrow monocytes (BMMs)", "assay": "Osteoclastogenesis analysis in bone marrow monocytes (TRAP staining)", "format": "cell-based, C3 (1)-Tag mice", "conditions": "IFN-γ 50, 100 ng/mL with M-CSF 30 ng/mL and RANKL 100 ng/mL, vs positive control", "method": "Primary mouse bone marrow monocytes (BMMs) were isolated from the hind limb bones (two femurs and two tibiae) of 4 to 8 week-old C3 (1)-Tag mice. The mouse BMMs were flushed into a 15 ml tube via 8 ml of a serum-free 2 mM EDTA α-MEM medium. A Lymphocyte Separation Medium (LSM: MP Biomedicals: Catalog No. 50494) was dispensed into a new tube, 8 ml of the flushed BMMs were gently added thereon and centrifuged at 1600 rpm for 20 minutes at room temperature. The isolated BMMs were inoculated at 3×10^5 cells/well in a 48-well plate with 0.5 mL of a medium per well and incubated in α-MEM containing 10% FBS and 1% antibiotics.\nBMMs in a negative control group were treated with M-CSF (30 ng/mL), BMMs in a positive control group were treated with M-CSF and RANKL (100 ng/mL), and BMMs in an experimental group were stimulated by treatment with M-CSF, RANKL, and IFN-γ (50, 100 ng/mL). On days 1, 3, 5, and 7 of culture, the medium was replaced, and each experimental group was treated with M-CSF, RANKL, and IFN-γ. After 9 days of culture, staining was performed using a TRAP staining kit (KT-008, KAMIYA biomedical company, Seattle, WA, USA) after fixing the cells with 10% formalin. For each well, TRAP-positive (TRAP^+) multinucleated cells (TRAP^+ MNC) were counted. All the experiments were independently repeated three times."}, "M6-bone cells": {"test_system": "M6-bone cells", "assay": "Western blot of IFN-γ-treated cells", "format": "cell-based, mouse", "conditions": "100 ng/ml IFN-γ, 18 hours", "method": "M6 and M6-bone cells were stimulated with 100 ng/ml recombinant mouse IFN-γ and cultured in a medium containing 1% FBS for 18 hours. The cells were lysed in a buffered mixture of a PRO-PREP™ protein extraction solution (iNtRON Biotechnology, 17081) and a phosphatase inhibitor cocktail (Gen DEPOT, p3200-001). Protein concentration was measured using the Bradford assay (Bio-rad, 500-0006, Hercules, CA, USA). 30 μg of the protein was separated by SDS-polyacrylamide gel electrophoresis and transferred to a PVDF membrane (10600023), and then the membrane was blocked with Tris-buffered saline containing 0.05% Tween 20 and 5% non-fat milk powder for 1 hour. The PVDF membrane was incubated overnight at 4° C. with primary antibodies. HIF1α (NB100-105, Novusbio), c-MET, Akt (Cat #9272), and p-Akt (Cat #9271) antibodies were purchased from Cell Signaling Technology (Beverly, MA, USA), and β-actin (Cat #A5316) was purchased from Sigma (Saint Louis, MO, USA). Subsequently, a horseradish peroxidase-conjugated secondary antibody was cultured at room temperature for 1 hour. Immunoreactive bands were detected with a chemiluminescent reagent (Cat #RPN2106)."}}, "note": "“Also recorded” adds a separate entry of the source."}
{"molecule": "IFN-γ: recombinant mouse IFN-γ, key cytokine of Th1 immunity (protein, UniProt P01580 23-155, looked up) Interferon gamma: HGTVIESLESLNNYFNSSGIDVEEKSLFLDIWRNWQKDGDMKILQSQIISFYLRLFEVLKDNQAISNNISVIESHLITTFFSNSKAKKDAFMSIAKFEVNNPQVQRQAFNELIRVVHQLLPESSLRKRKRSRC", "values": [{"measurement": "M-CSF and RANKL-induced osteoclastogenesis", "setting": "[1]", "value": "completely inhibited osteoclastogenesis; also recorded: inhibits"}, {"measurement": "expression of c-MET and p-Akt (Western blot)", "setting": "M6-bone cells", "value": "decreased"}]}
